Experimental data: the supplement of paper PMC12042874
± gives the uncertainty stated by the source.

experiment: amyloid nucleation score (Sup35N fusion, yeast selection) (log enrichment); library NNK1; higher = more nucleation; inactive = no reads after selection
Summary of the method: (§1)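 Psi-negative yeast expressed Sup35N fused to peptides of 20 random codons. They were induced 24 hours with 100 μM copper sulfate, grown 7 days at 30°C without adenine and uracil, and their plasmid inserts from input and output were Illumina-sequenced. The nucleation score is the DiMSum log enrichment of output over input reads, centred on the mode score of non-aggregating sequences. Sequences with under 100 input reads were excluded.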

For AKLDWHIRTAEWGLPKLLLT, the amyloid nucleation score was “inactive”.
With YYFRHMLKDNHLVIV the amyloid nucleation score was “inactive”.
In the case of YYLSLGLKLMSMVPVKSTY, the amyloid nucleation score is reported as “inactive”.
In the case of YYNNLRVSSYQSKFPIMAMF, the amyloid nucleation score is reported as “inactive”.
With YYTNWQEGYRVGRFRCDGHN the amyloid nucleation score was “inactive”.

YTCYIVKGLVVLTVACGG and YTDFRQSLLTVT are within error of each other in amyloid nucleation score: -0.225 ± 0.98 for the first, 0.07 ± 0.43 for the second.

YTEIMGL and YTFGDAGHPESAMVTCRAYS are within error of each other in amyloid nucleation score: -0.046 ± 0.31 for the first, -0.007 ± 0.33 for the second.

YTGSL and YTRSVL are within error of each other in amyloid nucleation score: -0.498 ± 0.63 for the first, 0.2 ± 0.23 for the second.

YTVVLEKTKVMYTVAPPRSL and YTWIEHAWSS are within error of each other in amyloid nucleation score: -1.04 ± 2.4 for the first, -0.062 ± 0.55 for the second.

YTYTQTFLV and YTYVSMPGR are within error of each other in amyloid nucleation score: -0.255 ± 0.47 for the first, -0.358 ± 0.34 for the second.

YVAISHGQTPSLYL and YVCFRVDTCRLVCVRRWLNY are within error of each other in amyloid nucleation score: -0.827 ± 1.5 for the first, 0.706 ± 0.51 for the second.

YVESGTFTDPRFWVSFAVCF and YVEVQVIKWVMKSEVHRGAW are within error of each other in amyloid nucleation score: 0.791 ± 0.54 for the first, 1.27 ± 0.48 for the second.

First: YVFLRFVSVCSYN
Second: YVFVWMRYTSFWVMNTFYSS
The amyloid nucleation score of the first is higher: 4.9 ± 0.05 for the first, 0.193 ± 0.46 for the second.

YVGSDLFYRCQKNKYHRHSL and YVGSRSAVNIGIICGSRLNE are within error of each other in amyloid nucleation score: -0.215 ± 0.97 for the first, -0.739 ± 1.5 for the second.

Compared with YVIMWGGLTLYLWGCRKWWE, YVIRFVKCR is higher in amyloid nucleation score: -0.103 ± 0.43 for the first, 2.23 ± 0.55 for the second.

Going from YVLWNRASIAPYIQHGLRVL to YVMAESSASNDQAVGNWRGR, the amyloid nucleation score falls from 1.19 ± 0.19 to -0.643 ± 0.97.

YVPPSMMLNGGDPEYSVGLK and YVQFYGWRTWDLYWYLEWVV are within error of each other in amyloid nucleation score: 0.082 ± 0.89 for the first, -1.07 ± 0.8 for the second.

Going from YVRFYLFNFVGLRQKFMI to YVRMACMLGLHSRYWMHRVV, the amyloid nucleation score falls from 2.74 ± 0.17 to -0.267 ± 0.6.

YVSAGRCKYDDLPTRV and YVVCKGIRSSSWDSWVSKR are within error of each other in amyloid nucleation score: 0.133 ± 0.67 for the first, -0.393 ± 0.28 for the second.

First: YVVCYFDNLFLSSISLSLRA
Second: YWAIVW
The amyloid nucleation score of the first is higher: 8.521 ± 0.058 for the first, -0.128 ± 0.39 for the second.

Compared with YWEGWGKTRFKCNGSRSRAG, YWFFSIMSSYSVNTQM is higher in amyloid nucleation score: -1.01 ± 1.3 for the first, 1.64 ± 0.8 for the second.

First: YWLNNYYVVGNIS
Second: YYESRNWSILFRLINMF
The amyloid nucleation score of the first is higher: 2.57 ± 0.25 for the first, -0.078 ± 0.46 for the second.

First: YYGVWVDREHWL
Second: YYISLFTEDMSVRRVNQTCF
The amyloid nucleation score of the first is higher: 0.628 ± 0.48 for the first, -2.03 ± 0.96 for the second.

First: YYLDGTGLWVNCVRMARGCG
Second: YYLEGSNALYIKVDRILRLL
The amyloid nucleation score of the first is higher: 1.16 ± 0.78 for the first, -0.187 ± 0.54 for the second.

YYLSCNDSKGYSMRQFMYDV and YYMMTKRGFNMILCCCCRCF are within error of each other in amyloid nucleation score: -0.139 ± 0.81 for the first, 0.667 ± 0.2 for the second.

YYPNPMQPW and YYSHIIQAGCWVVYRDVRLF are within error of each other in amyloid nucleation score: -0.526 ± 0.47 for the first, 0.52 ± 0.88 for the second.

YYSLAVLTSLRARKSTVFND and YYYEPLFPRELHSQLYLL are within error of each other in amyloid nucleation score: -1.16 ± 0.78 for the first, -0.268 ± 0.8 for the second.

experiment: amyloid nucleation score (Sup35N fusion, yeast selection) (log enrichment); library NNK2; higher = more nucleation; inactive = no reads after selection
Summary of the method: as §1

AKLDWHIRTAEWGLPKLLLT gave an amyloid nucleation score of -0.467 ± 0.54.
